Laboratory results published in US20240327500A1.

Molecular target: HBV virions (Genotype D) (Hepatitis B virus genotype D)
Test: cell-based or functional assay

neutralization at 0.03 µg/ml, in-vitro assay: 29%
Substance: HBC34 (antibody)
